Results published in patent US20240101684A1 (AIMED BIO, published 2024).

What was measured:
[1] = biological target: T1, Domain#3 (human, UniProt P22607); assay: ELISA on Fc-tagged FGFR3 constructs (FGFR3 domain mapping), bar Domain#3
T1 construct: single domain fused to human IgG1 Fc; also called FGFR3 Domain 3; FGFR3 Ig domain III with Fc tag
T1 sequence (Fc fusion chain): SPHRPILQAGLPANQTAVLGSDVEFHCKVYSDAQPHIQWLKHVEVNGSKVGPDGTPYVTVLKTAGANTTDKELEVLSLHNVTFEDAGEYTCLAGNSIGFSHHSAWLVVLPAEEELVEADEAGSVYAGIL
Protocol: (§1) Affinity ELISA was performed to determine the binding ability of the produced antibody (IgG) to the FGFR3 antigen. A 96-well plate (4° C., overnight) was coated with […] of FGFR3 antigen and blocked with 3% skim milk (PBS) (room temperature, 1 hour). Then, the plate was treated with previously serially diluted antibody samples in duplicate and triplicate, and reacted at room temperature for 1 hour. Then, the result was washed with PBST 2 to 3 times, treated with the HRP-conjugated anti-human Fab antibody diluted in skim milk (room temperature, 1 hour), and washed again with PBST, and a color reaction (TMB substrate) was performed. Then, O.D. was measured at 450 nm.
(§2) FGFR3 is composed of three domains, so each domain (FGFR3 Ig domain I, domain II, domain III) is attached with an Fc tag to analyze the FGFR3-binding domain of the discovered antibody, and produced and purified through a mammalian cell protein expression system (FIG. 9C). Analysis of the binding ability of the antibody to the purified domain was performed in the same manner as the ELISA described above. 1 μg/ml of an antigen was coated and treated with the antibody to induce a TMB color reaction. […] However, the epitope of the comparative antibody is included in domain No. 2, which was conducted according to the present invention. […]

[2] = biological target: T2, human FGFR3 IIIb recombinant protein (1264-FR-050, R&D) (human, UniProt P22607-2 23-377); assay: direct-binding ELISA on rhFGFR3-IIIb, 2' screening, plate 1 (row head prints IC50)
T2 construct: Bought recombinant antigen; also called rhFGFR3-IIIb; FGFR3-IIIb (Human)
T2 sequence (looked up): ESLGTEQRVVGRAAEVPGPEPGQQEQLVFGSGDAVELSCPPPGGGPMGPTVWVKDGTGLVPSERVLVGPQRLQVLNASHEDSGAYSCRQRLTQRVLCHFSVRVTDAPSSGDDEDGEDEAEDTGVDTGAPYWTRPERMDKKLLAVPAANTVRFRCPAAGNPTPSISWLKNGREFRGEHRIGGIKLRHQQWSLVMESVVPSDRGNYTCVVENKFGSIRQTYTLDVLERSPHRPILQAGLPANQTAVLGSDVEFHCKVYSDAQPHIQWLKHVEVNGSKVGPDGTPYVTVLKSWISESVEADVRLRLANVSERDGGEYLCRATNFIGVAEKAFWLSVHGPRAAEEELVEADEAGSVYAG

[3] = biological target: T3, FGFR3 Ig domain II with Fc tag (UniProt P22607 151-244); assay: FGFR3 Domain ELISA, AMB302#1, bar Domain#2
T3 construct: domain: FGFR3 Ig domain II; Recombinant domain made in mammalian cells; also called domain No. 2
T3 sequence: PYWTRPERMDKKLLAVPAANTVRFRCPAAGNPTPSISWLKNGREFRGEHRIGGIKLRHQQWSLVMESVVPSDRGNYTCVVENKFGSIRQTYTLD
Protocol: FGFR3 is composed of three domains, so each domain (FGFR3 Ig domain I, domain II, domain III) is attached with an Fc tag to analyze the FGFR3-binding domain of the discovered antibody, and produced and purified through a mammalian cell protein expression system (FIG. 9C). Analysis of the binding ability of the antibody to the purified domain was performed in the same manner as the ELISA described above. 1 μg/ml of an antigen was coated and treated with the antibody to induce a TMB color reaction. […] However, the epitope of the comparative antibody is included in domain No. 2, which was conducted according to the present invention. In addition, ligands of FGF1 and FGF9, and FGFR3 have been reported to bind to Ig domain II and domain III of FGFR3. Based on this, competition ELISA assay was conducted. […] This supports binding of F309 antibody to the aforementioned FGFR3 Ig domain I (FIG. 9A).
The epitope domain mapping performed above was also performed on the affinity matured antibody F309 #SSM236 (hereinafter referred to as AMB302 #1.2). […] The antibody was also found to have specific binding ability to human/cyno FGFR3 (FIG. 17).

[4] = biological target: T4, human FGFR3 IIIc recombinant protein (766-FR-050, R&D) (human, UniProt P22607 23-375); assay: SPR, table under the sensorgrams, column KD, row FGFR3-IIIc Human; unit inferred
T4 construct: Bought recombinant antigen; also called FGFR3-IIIc (Human)
T4 sequence (looked up): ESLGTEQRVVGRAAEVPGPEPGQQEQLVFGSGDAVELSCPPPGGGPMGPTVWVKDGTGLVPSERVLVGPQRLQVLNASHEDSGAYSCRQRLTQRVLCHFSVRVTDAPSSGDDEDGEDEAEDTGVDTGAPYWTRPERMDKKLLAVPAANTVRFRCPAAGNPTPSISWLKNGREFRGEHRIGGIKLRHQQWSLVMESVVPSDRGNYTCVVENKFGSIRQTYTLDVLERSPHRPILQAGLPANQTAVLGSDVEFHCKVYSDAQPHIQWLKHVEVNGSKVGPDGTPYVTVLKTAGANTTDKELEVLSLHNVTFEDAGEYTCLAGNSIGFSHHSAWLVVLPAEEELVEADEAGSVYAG

[5] = biological target: T2, human FGFR3 IIIb recombinant protein …; assay: direct-binding ELISA on rhFGFR3-IIIb, 1' screening (row head prints IC50)
[6] = biological target: T5, monkey FGFR3 recombinant protein (90313-C02H, Sino Biological) (cynomolgus monkey, UniProt A0A2K5V1U5 23-376); assay: SPR, table under the sensorgrams, column KD, row FGFR3 Monkey; unit inferred
T5 construct: Bought recombinant antigen; also called cynomolgus monkey FGFR3; cyno FGFR3
T5 sequence: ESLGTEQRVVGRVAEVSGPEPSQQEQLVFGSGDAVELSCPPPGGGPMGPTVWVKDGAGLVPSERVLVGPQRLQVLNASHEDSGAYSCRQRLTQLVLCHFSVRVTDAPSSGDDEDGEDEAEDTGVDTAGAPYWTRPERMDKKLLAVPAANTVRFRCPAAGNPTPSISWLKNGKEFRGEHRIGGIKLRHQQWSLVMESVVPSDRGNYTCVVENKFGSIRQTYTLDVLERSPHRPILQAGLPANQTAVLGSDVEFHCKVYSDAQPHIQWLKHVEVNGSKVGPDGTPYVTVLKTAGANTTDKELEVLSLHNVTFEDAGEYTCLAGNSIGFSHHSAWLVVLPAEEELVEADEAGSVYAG

[7] = biological target: T2, human FGFR3 IIIb recombinant protein …; assay: SPR, table under the sensorgrams, column KD, row FGFR3-IIIb Human; unit inferred
[8] = biological target: T2, human FGFR3 IIIb recombinant protein …; assay: direct-binding ELISA on rhFGFR3-IIIb, 2' screening, plate 2 (row head prints IC50); 2' screening, Plate2
[9] = biological target: T2, human FGFR3 IIIb recombinant protein …; assay: direct-binding ELISA on rhFGFR3-IIIb, 1' screening (row head prints IC50); 1' screening
[10] = biological target: T2, human FGFR3 IIIb recombinant protein …; assay: SPR (Biacore), hFGFR3-iiib immobilised on the chip, antibody injected
Protocol: SPR analysis was performed to evaluate the binding ability of the produced antibody (IgG) to the FGFR3 subtype and subfamily. The measurement of SRP-based affinity of FGFR3 antibody candidates for the FGFR3 antigen was performed using a Biacore-T200 instrument. The same antigens as described with reference to ELISA binding capacity were directly immobilized on a CM5 biosensor chip by amine coupling to achieve approximately 300 RU. Two-fold serial dilutions were injected at a flow rate of […] at a concentration of approximately 20 nM for an association time of 180 seconds (25° C.) and then separated at the same flow rate for 180 seconds. The CM5 biosensor chip was regenerated by injecting 10 mM glycine-HCl as a buffer between each injection. Association and dissociation rates were calculated using a one-to-one Langmuir binding model. The equilibrium dissociation constant (KD) was calculated as a ratio Koff/Kon (FIG. 5, Table 6).

[11] = biological target: T6, FGFR3 recombinant protein (isoform not given) (Homo sapiens (Human), UniProt P22607 23-375, limits assumed); assay: competition ELISA (FGFR3 - FGF1 interaction), blocked ligand FGF1
T6 construct: also called FGFR3 antigen
T6 sequence: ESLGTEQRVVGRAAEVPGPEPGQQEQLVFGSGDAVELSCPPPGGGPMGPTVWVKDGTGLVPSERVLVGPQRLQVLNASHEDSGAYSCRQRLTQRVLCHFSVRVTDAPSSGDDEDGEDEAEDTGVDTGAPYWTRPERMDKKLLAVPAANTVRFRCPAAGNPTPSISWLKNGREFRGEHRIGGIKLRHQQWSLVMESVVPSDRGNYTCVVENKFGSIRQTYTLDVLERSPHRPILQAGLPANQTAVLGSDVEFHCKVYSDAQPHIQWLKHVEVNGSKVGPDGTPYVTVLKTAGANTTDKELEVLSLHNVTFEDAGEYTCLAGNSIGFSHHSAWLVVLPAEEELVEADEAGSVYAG

[12] = biological target: T3, FGFR3 Ig domain II with Fc tag; assay: ELISA on Fc-tagged FGFR3 constructs (FGFR3 domain mapping), bar Domain#2
Protocol: as §1, §2

B1: F309 (antibody, V domains shown)
VH: EVQLLESGGGLVQPGGSLRLSCAASGFTFSSYDMSWVRQAPGKGLEWVSGIYSGDGSIYYADSVKGRFTISRDNSKNTLYLQMNSLRAEDTAVYYCAKDAPTNEMSRFDYWGQGTLVTVSS
VL: QSVLTQPPSASGTPGQRVTISCSGSSSNIGNNYVSWYQQLPGTAPKLLIYADSKRPSGVPDRFSGSKSGTSASLAISGLRSEDEADYYCASWDYSLSGYVFGGGTKLTVL
notes: also called F309 antibody; F309 clone
- binding result [1]: no binding
- EC50 [2]: 80.4 nM
- binding result [3]: no binding
- Kd [4]: 11.1 nM
- EC50 [5]: 0.67 nM
- Kd [6]: 32.8 nM
- Kd [7]: 10.4 nM
- EC50 [8]: 67 nM

B2: F309#SSM001 (antibody, V domains shown)
VH: EVQLLESGGGLVQPGGSLRLSCAASGFTFSSYDMSWVRQAPGKGLEWVSGIYSGDGSIYYADSVKGRFTISRDNSKNTLYLQMNSLRAEDTAVYYCAKDYPTNEMSRFDYWGQGTLVTVSS
VL: QSVLTQPPSASGTPGQRVTISCSGSSSNIGNNYVSWYQQLPGTAPKLLIYADSKRPSGVPDRFSGSKSGTSASLAISGLRSEDEADYYCASWDYSLSGYVFGGGTKLTVL
- EC50 [9]: 2190 nM

B3: FS313 (antibody, V domains shown)
VH: EVQLLESGGGLVQPGGSLRLSCAASGFTFSGYAMSWVRQAPGKGLEWVSGINWRGATTAYADSLKGRFTISRDNSKNTLYLQMNSLRAEDTAVYYCARSDYGLFDIWGQGTLVTVSS
VL: QSVLTQPPSASGAPGQRVTISCGGNNIGSKSVHWYQQLPGTAPKLLIYQDTKRPSGVPNRFSGSKSGTSASLAISGLRSEDEADYYCQSYDSRQLVFGGGTKLTVL
notes: also called FS313 IgG
- binding result [10]: binds

B4: B701 (Vofatamab, Rainier Therapeutics) (antibody, V domains shown)
VH: EVQLVESGGGLVQPGGSLRLSCAASGFTFTSTGISWVRQAPGKGLEWVGRIYPTSGSTNYADSVKGRFTISADTSKNTAYLQMNSLRAEDTAVYYCARTYGIYDLYVDYTEYVMDYWGQGTLVTVSS
VL: DIQMTQSPSSLSASVGDRVTITCRASQDVDTSLAWYKQKPGKAPKLLIYSASFLYSGVPSRFSGSGSGTDFTLTISSLQPEDFATYYCQQSTGHPQTFGQGTKVEIK
- EC50 [5]: 0.417 nM
- IC50 (read off the curve) [11]: ~3 nM

B5: FS306 (antibody, V domains shown)
VH: EVQLLESGGGLVQPGGSLRLSCAASRFTFSDIAMHWVRQAPGKGLEWVSTIYSSDSTYYNPSLKGRFTISRDNSKNTLYLQMNSLRAEDTAVYYCAKGVGYTTSSRFDYWGQGTLVTVSS
VL: EIVLTQGPGTLSLSPGERATLSCRASQSISSYLNWYQQKPGQAPRLLVYDASNRAAGIPDRFSGSGSGTDFTLTISRLEPEDFAVYYCQQYSSFPLTFGQGTKVEIK
notes: also called FS306 antibody; FS306 clone
- binding result [1]: no binding
- binding result [12]: no binding
